{"source": "paper PMC5190049", "about": "“Immunogenicity of mammary tumor cells can be induced by shikonin via direct binding-interference with hnRNPA1” (Oncotarget, 2016)", "molecules": {"B1": {"name": "M3 RNA (called M2 in Figure 2c legend) (ssRNA)", "RNA": "AUUUCGGGAUUUCGGGAAUG"}, "B2": {"name": "WT RNA (ssRNA)", "RNA": "AUUUAGGGAUUUAGGGAAUG"}, "B3": {"name": "WT RNA (ITC) (ssRNA)", "RNA": "AUUUAGGGAUUUAGGGAAUG"}, "B4": {"name": "TR2 (ssDNA)", "DNA": "TTAGGGTTAGCG"}}, "key": {"[1]": {"target": "T1, hnRNPA1 (UP1) (Homo sapiens, UniProt P09651)", "T1 construct": "UP1, first 196 amino acids (N-terminal fragment with both RRMs); pET-42a, GST-His tag cut by Factor Xa; E. coli BL21(DE3)", "T1 sequence (P09651 1-196)": "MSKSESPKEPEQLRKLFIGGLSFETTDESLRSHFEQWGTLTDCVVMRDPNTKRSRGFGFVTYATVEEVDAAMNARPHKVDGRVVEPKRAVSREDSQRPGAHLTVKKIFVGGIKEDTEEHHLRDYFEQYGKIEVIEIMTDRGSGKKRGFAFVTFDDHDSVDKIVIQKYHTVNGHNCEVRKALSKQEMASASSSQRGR", "assay": "isothermal titration calorimetry", "type": "binding"}, "[2]": {"target": "T2, hnRNPA1 N-terminal fragment (UP1) (human, UniProt P09651 1-196)", "T2 sequence (P09651 1-196)": "as above", "assay": "EMSA; shikonin 0-4 ug/test; EMSA: 20 mM HEPES, 50 mM KCl, 1 mM EDTA, 5 mM MgCl2, 0.1 mg/ml tRNA, 0.1 mg/ml BSA, 5 mM DTT, 10% glycerol, room temperature; ITC: 300 mM NaCl, 50 mM Tris-HCl", "conditions": "protein: recombinant; tags: GST-His fusion tag removed with Factor Xa; label: 5'-biotin"}, "[3]": {"target": "T2, hnRNPA1 N-terminal fragment (UP1)", "assay": "EMSA; without shikonin; shikonin 0-4 ug/test disrupts binding; EMSA: 20 mM HEPES, 50 mM KCl, 1 mM EDTA, 5 mM MgCl2, 0.1 mg/ml tRNA, 0.1 mg/ml BSA, 5 mM DTT, 10% glycerol, room temperature; ITC: 300 mM NaCl, 50 mM Tris-HCl", "conditions": "protein: recombinant; tags: GST-His fusion tag removed with Factor Xa; label: 5'-biotin"}, "[4]": {"target": "T2, hnRNPA1 N-terminal fragment (UP1)", "assay": "ITC; N = 1.17 +/- 0.128; pH 7.0; 3 uM UP1, 60 uM RNA; Kd not given in text; EMSA: 20 mM HEPES, 50 mM KCl, 1 mM EDTA, 5 mM MgCl2, 0.1 mg/ml tRNA, 0.1 mg/ml BSA, 5 mM DTT, 10% glycerol, room temperature; ITC: 300 mM NaCl, 50 mM Tris-HCl", "conditions": "protein: recombinant; tags: GST-His fusion tag removed with Factor Xa"}, "[5]": {"target": "T2, hnRNPA1 N-terminal fragment (UP1)", "assay": "EMSA; without shikonin; shikonin 0-4 ug/test disrupts binding dose-dependently; EMSA: 20 mM HEPES, 50 mM KCl, 1 mM EDTA, 5 mM MgCl2, 0.1 mg/ml tRNA, 0.1 mg/ml BSA, 5 mM DTT, 10% glycerol, room temperature; ITC: 300 mM NaCl, 50 mM Tris-HCl", "conditions": "protein: recombinant; tags: GST-His fusion tag removed with Factor Xa; label: 5'-biotin"}}, "data": [{"molecule": "CC(C)=CC[C@@H](O)C1=CC(=O)c2c(O)ccc(O)c2C1=O", "note": "[shikonin]", "values": [{"measurement": "Kd", "setting": "[1]", "value": 71.2, "unit": "µM"}]}, {"molecule": "B1", "values": [{"measurement": "binding result", "setting": "[2]", "value": "no binding"}]}, {"molecule": "B2", "values": [{"measurement": "binding result", "setting": "[3]", "value": "binds"}]}, {"molecule": "B3", "values": [{"measurement": "binding result", "setting": "[4]", "value": "binds"}]}, {"molecule": "B4", "values": [{"measurement": "binding result", "setting": "[5]", "value": "binds"}]}]}
